In article PMC8608799, “The main oxidative inactivation pathway of the plant hormone auxin” (Nature Communications, 2021):

What was measured:
Assay type in all cases: biochemical, Arabidopsis thaliana
Conditions in all cases: 1 mM MnCl2, 0.5 mM dithiothreitol, 50 mM Tris-HCl pH 7.4, 32 °C
[1] = tested on: O=C(O)CC[C@H](NC(=O)CC1C(=O)Nc2ccccc21)C(=O)O; test: HPLC of hydrolysis product, Lineweaver-Burk
[2] = tested on: O=C(O)CC[C@H](NC(=O)Cc1c[nH]c2ccccc12)C(=O)O; test: HPLC of hydrolysis product, kinetics
[3] = tested on: O=C(O)C[C@H](NC(=O)CC1C(=O)Nc2ccccc21)C(=O)O; test: HPLC of hydrolysis product, kinetics
[4] = tested on: O=C(O)C[C@H](NC(=O)Cc1c[nH]c2ccccc12)C(=O)O; test: HPLC of hydrolysis product, kinetics

Sequence of GST-ILR1 (Arabidopsis thaliana) (chain, as listed by the source): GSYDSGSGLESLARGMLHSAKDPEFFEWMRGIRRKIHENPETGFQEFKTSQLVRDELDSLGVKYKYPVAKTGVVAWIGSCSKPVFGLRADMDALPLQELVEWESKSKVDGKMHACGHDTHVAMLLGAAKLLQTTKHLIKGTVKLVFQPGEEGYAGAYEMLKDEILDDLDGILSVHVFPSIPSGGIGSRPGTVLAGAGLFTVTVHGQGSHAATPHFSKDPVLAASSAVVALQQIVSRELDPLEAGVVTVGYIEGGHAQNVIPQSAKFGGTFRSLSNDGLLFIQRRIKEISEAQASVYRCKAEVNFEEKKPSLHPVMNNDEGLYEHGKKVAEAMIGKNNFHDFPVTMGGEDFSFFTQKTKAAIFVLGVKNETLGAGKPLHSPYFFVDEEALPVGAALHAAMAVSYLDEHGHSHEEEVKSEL

## GST-ILR1 (Arabidopsis thaliana)
[1]
  Km: 2.71 ± 0.34 µM
  kcat: 0.0089 s⁻¹
[2]
  Km: 59.9723 ± 7.5726 µM
  kcat: 0.021 s⁻¹
[3]
  Km: 130.125 ± 25.3236 µM
  kcat: 0.0036 s⁻¹
[4]
  Km: 340.087 ± 41.4597 µM
  kcat: 0.0025 s⁻¹
